Where two headings read alike, the source gives them in different places. Values belong to the binder of their own block, whether it stands above or below them.
Tests used:
[1] = target: T1, Fc tagged human SIRPβ ECD recombinant protein (human, UniProt O00241 30-371); assay: ELISA
T1 construct: range 1-371; cloned range includes the signal peptide; also called hSIRPβ; not shown: human IgG Fc region (hFc) of the pCPC vector
Description: (§1) Binding specificity of the purified hybridoma antibodies against SIRP family members was detected by ELISA assay using recombinant proteins of Fc tagged human SIRPα v1 ECD, human SIRPα v2 ECD, human SIRPβ ECD and human SIRPγ ECD. Briefly the antibodies were incubated with ELISA microplate coated antigens at 37° C. for 1 hour. After washing, horseradish peroxidase (HRP) labeled anti-mouse or anti-human IgG 2nd Ab (Sigma) was added and incubated at 37° C. for 1 hour. Then, 100 μl/well of TMB solution (Biotechnology) was added. After incubation for 15 minutes at room temperature, the reaction was stopped by the addition of 50 μl of 1N HCl. OD 450 nm was read and EC₅₀ was calculated. Other than 060 and HEFLB, all of the antibodies as tested can bind with both human SIRPα v1 and SIRPα v2. 060 and HEFLB can bind with human SIRPα v1 but not v2. Other than 055, all of the antibodies as tested can bind with human SIRPβ. In comparison with other known anti-SIRPα antibodies, only 022, 035 and 050 can bind with human SIRPγ weakly.
The purified chimeric antibodies were applied for binding specificity analysis and species cross reactivity analysis (refer to methods described in Example 3.3 and 3.4). FIGS. 1A to 1D show binding specificity of anti-SIRPα chimeric antibodies against recombinant proteins of human SIRPα v1 ECD (A), human SIRPα v2 ECD (B), human SIRPβ ECD (C) and human SIRPγ ECD (D) as measured by ELISA analysis.

[2] = target: T2, Fc tagged human SIRPα v1 ECD recombinant protein (human, UniProt P78324 31-370); assay: ELISA
T2 construct: range 1-370; cloned range M1-R370 includes the signal peptide; also called hSIRPα V1; not shown: human IgG Fc region (hFc) of the pCPC vector
T2 sequence (P78324 31-370 limits assumed): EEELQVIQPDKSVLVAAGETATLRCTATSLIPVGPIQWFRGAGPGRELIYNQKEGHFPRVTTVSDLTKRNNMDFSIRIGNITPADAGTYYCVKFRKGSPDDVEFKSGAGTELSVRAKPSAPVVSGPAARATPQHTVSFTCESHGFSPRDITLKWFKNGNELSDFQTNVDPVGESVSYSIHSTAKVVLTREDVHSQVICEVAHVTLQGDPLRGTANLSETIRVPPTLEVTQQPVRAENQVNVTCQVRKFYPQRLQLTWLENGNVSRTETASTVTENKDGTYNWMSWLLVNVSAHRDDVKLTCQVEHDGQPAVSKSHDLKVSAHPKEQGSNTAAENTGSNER
Description: as §1

[3] = target: T1, Fc tagged human SIRPβ ECD recombinant …; assay: ELISA; remark: listed apart in the source
Description: as §1

[4] = target: T3, biotin labeled soluble human SIRPα v1 ECD recombinant protein (human, UniProt P78324 31-373, biotin labeled); assay: competitive ELISA; competitor 074
T3 construct: extracellular domain
T3 sequence (P78324 31-373): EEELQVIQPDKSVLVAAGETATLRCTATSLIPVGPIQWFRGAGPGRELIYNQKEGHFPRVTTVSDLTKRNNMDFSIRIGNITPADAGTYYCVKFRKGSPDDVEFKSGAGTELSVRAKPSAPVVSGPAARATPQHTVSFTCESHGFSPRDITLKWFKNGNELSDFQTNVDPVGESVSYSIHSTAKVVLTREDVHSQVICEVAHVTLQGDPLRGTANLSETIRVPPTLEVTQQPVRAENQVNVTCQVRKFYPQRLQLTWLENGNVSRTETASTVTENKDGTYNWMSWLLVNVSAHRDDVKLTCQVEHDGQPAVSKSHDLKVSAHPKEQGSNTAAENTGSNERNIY
Description: (§2) Competitive ELISA assay was used for epitope binning of 9 functional antibodies. Briefly excessive competitor antibody and biotin labeled soluble human SIRPα v1 ECD recombinant protein were co-incubated with ELISA microplate coated antibody. After washing, HRP-SA was added and incubated at 37° C. for 1 hour. Then, […] of TMB solution (Biotechnology) was added. After incubation for 15 minutes at room temperature, the reaction was stopped by the addition of […] of 1N HCl. OD 450 nm was read. Competition ratio was calculated. The antibodies that can compete each other for binding to SIRPα have the similar binding epitope.

[5] = target: T3, biotin labeled soluble human SIRPα v1 …; assay: competitive ELISA; competitor 035
Description: as §2

[6] = target: T3, biotin labeled soluble human SIRPα v1 …; assay: competitive ELISA; competitor HEFLB
Description: as §2

[7] = target: T3, biotin labeled soluble human SIRPα v1 …; assay: competitive ELISA; competitor 001
Description: as §2

[8] = target: T3, biotin labeled soluble human SIRPα v1 …; assay: competitive ELISA; competitor 022
Description: as §2

[9] = target: T4, Fc tagged human SIRPα v2 ECD recombinant protein (human); assay: ELISA
T4 construct: range 1-369; cloned range M1-R369 includes the signal peptide; also called hSIRPα V2
Description: as §1

T1 sequence (O00241 30-371 limits assumed, form in doubt): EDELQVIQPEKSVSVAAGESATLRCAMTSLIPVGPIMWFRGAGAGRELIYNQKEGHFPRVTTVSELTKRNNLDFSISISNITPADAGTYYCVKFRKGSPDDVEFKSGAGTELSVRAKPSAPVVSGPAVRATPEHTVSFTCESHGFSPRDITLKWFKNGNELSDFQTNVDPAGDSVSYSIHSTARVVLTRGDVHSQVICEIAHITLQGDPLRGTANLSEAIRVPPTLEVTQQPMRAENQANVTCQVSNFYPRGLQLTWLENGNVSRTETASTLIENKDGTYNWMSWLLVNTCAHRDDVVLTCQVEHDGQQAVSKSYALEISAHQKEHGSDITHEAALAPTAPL

B1: reference antibody HEFLB (antibody, V domains shown)
VH: EVQLVQSGAEVKKPGESLRISCKASGYSFTSYWVHWVRQMPGKGLEWMGNIDPSDSDTHYSPSFQGHVTLSVDKSISTAYLQLSSLKASDTAMYYCVRGGTGTLAYFAYWGQGTLVTVSS
VL: DVVMTQSPLSLPVTLGQPASISCRSSQSLVHSYGNTYLYWFQQRPGQSPRLLIYRVSNRFSGVPDRFSGSGSGTDFTLKISRVEAEDVGVYYCFQGTHVPYTFGGGTKVEIK
EC50 [1]: 80 pM
EC50 [2]: 170 pM
EC50 [3]: 170 pM
% Competition [4]: 2%
% Competition [5]: 51%
% Competition [6]: 88%
% Competition [7]: 89%
% Competition [8]: 4%

B3: Antibody 001 (hybridoma antibody) (antibody, V domains shown)
VH: EVKLEESGGGLVQPGGSMKLSCVASGFTFRNYWMNWVRQSPERGLEWIAEISLKSNTYATHYAESVKGRFAISRDGSKSSFYLQMNDLRAEDTGIYYCTTFTKVVADWHLDVWGAGTTVTVSS
VL: DVLMTQTPLSLPVSLGDQASISCRSSQNIVHSNGNTYLEWYLQKPGQSPKLLIYKVSNRFSGVPDRFSGSGSGTDFTLRISRVEAEDLGVYYCFQGSHVPFTFGSGTKLEIK
notes: mouse hybridoma antibody
EC50 [2]: 70 pM
EC50 [9]: 70 pM
EC50 [3]: 120 pM
% Competition [4]: 5%
% Competition [5]: 96%
% Competition [6]: 36%
% Competition [7]: 96%
% Competition [8]: -19%

Other lines, results leading:

EC50 [2]: 30 pM
EC50 [3]: 40 pM
% Competition [4]: -1%
% Competition [5]: 3%
% Competition [6]: -3%
% Competition [7]: 0%
% Competition [8]: 10%
B2: Antibody 060 (hybridoma antibody) (antibody, V domains shown)
VH: QVQLKESGPGLVAPSESLSITCTVSGFSLTNYDISWIRQSPGKGLEWLGVIWTGGDTNFNSAFMSRLSISKDKSKSQVFLKLNSLQTDDTAIYYCVRVQYFGGSYGPMDYWGQGISVTVSS
VL: DIQMTQASSYLSVSLGGRVTITCEASDHINDWLAWYQQTPGNAPRLLISGATSLETGVPSRFSGSGSGKDYTLSITSLQTEDIATYYCQQYWNTPLTFGAGTRLELK
notes: mouse hybridoma antibody

EC50 [2]: 30 pM
EC50 [9]: 40 pM
EC50 [3]: 20 pM
% Competition [4]: 6%
% Competition [5]: 91%
% Competition [6]: 14%
% Competition [7]: 94%
% Competition [8]: 1%
B4: Antibody 032 (hybridoma antibody) (antibody, V domains shown)
VH: EVRLEESGGGLVQPGGSMKLSCVVSGFTFRNYWMNWVRQSPERGLEWIAEITLKSNTYATHYAESVKGRFAISRDDSKSSFYLQMNDLRPEDTGIYYCTTFTKVVADWHLDVWGAGTTVTVSS
VL: DVLMTQTPLSLPVNLGDQASISCRSSQNIVHSNGNTYLEWYLQKPGQSPKLLIYKVSNRFSGVPDRFSGSGSGTDFTLRISRVEAEDLGVYYCFQGSHVPFTFGSGTKLEIK
notes: mouse hybridoma antibody

EC50 [2]: 110 pM
EC50 [9]: 100 pM
EC50 [3]: 160 pM
% Competition [4]: -10%
% Competition [5]: 93%
% Competition [6]: 7%
% Competition [7]: 94%
% Competition [8]: -5%
B5: Antibody 002 (hybridoma antibody) (antibody, V domains shown)
VH: EVKLEESGGGLVQPGGSMILSCVASGFTFRNYWMNWVRQSPERGLEWIAEITLKSNTYATHYAESVKGRFAISRDDSKSSFYLQMNDLRPEDTGIYYCTTFTKVVADWHLDVWGAGTTVTVSS
VL: DVLMTQTPLSLPVSLGDQASISCRSSQNIVHSNGNTYLEWYLQKPGQSPKLLIYKISNRFSGVPDRFSGSGSGTDFTLRISRVEAEDLGVYYCFQGSHVPFTFGSGTKLEIQ
notes: mouse hybridoma antibody

EC50 [2]: 30 pM
EC50 [9]: 40 pM
EC50 [3]: 20 pM
% Competition [4]: 6%
% Competition [5]: 93%
% Competition [6]: 2%
% Competition [7]: 92%
% Competition [8]: -1%
B6: Antibody 035 (hybridoma antibody) (antibody, V domains shown)
VH: QIQLVQSGPELRKPGETVKISCKASGYSFTNYAMNWVKQAPGKVLKWMGFINTYTGEPTYADDFKGRFAFSLETSASTAYLQINNLKNEDTATYFCTRTRGYYDFDGGAFDYWGQGTSLTVSS
VL: DIVMTQSQKFMSTSIGDRVSVTCKASQNVGTHLAWYQQKPGQSPKALIFSASYRYIGVPDRFTGSGSGTDFTLTITNVQSEDLAEYFCQQYNTYPLTFGAGTKLELK
notes: mouse hybridoma antibody

Source: patent US20210347908A1 (ELPISCIENCE SUZHOU BIOPHARMA, published 2021)
